Reference: IntAct's records for PubMed 35512704

B1: Speckle-type POZ protein (Homo sapiens), O43791 (parent)
chain: MSRVPSPPPPAEMSSGPVAESWCYTQIKVVKFSYMWTINNFSFCREEMGEVIKSSTFSSGANDKLKWCLRVNPKGLDEESKDYLSLYLLLVSCPKSEVRAKFKFSILNAKGEETKAMESQRAYRFVQGKDWGFKKFIRRDFLLDEANGLLPDDKLTLFCEVSVVQDSVNISGQNTMNMVKVPECRLADELGGLWENSRFTDCCLCVAGQEFQAHKAILAARSPVFSAMFEHEMEESKKNRVEINDVEPEVFKEMMCFIYTGKAPNLDKMADDLLAAADKYALERLKVMCEDALCSNLSVENAAEILILADLHSADQLKTQAVDFINYHASDVLETSGWKSMVVSHPHLVAEAYRSLASAQCPFLGPPRKRLKQS
partner: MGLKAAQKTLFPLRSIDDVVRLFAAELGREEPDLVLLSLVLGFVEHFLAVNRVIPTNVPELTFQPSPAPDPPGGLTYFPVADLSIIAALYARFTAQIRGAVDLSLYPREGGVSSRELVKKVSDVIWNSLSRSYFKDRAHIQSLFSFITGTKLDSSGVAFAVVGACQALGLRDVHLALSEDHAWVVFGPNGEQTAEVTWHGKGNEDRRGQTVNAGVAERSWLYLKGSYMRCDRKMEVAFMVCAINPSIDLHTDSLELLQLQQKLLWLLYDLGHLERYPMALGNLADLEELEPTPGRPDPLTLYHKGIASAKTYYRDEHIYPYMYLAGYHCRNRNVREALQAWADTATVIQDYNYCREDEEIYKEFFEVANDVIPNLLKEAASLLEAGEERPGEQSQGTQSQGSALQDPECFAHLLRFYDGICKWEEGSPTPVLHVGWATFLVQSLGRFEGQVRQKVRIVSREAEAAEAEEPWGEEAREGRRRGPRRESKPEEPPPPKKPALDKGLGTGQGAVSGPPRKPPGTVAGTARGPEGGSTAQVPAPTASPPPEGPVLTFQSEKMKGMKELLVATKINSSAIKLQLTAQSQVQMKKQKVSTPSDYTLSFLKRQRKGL
B2: Speckle-type POZ protein (Homo sapiens), O43791 (parent)
chain: B1 chain
partner: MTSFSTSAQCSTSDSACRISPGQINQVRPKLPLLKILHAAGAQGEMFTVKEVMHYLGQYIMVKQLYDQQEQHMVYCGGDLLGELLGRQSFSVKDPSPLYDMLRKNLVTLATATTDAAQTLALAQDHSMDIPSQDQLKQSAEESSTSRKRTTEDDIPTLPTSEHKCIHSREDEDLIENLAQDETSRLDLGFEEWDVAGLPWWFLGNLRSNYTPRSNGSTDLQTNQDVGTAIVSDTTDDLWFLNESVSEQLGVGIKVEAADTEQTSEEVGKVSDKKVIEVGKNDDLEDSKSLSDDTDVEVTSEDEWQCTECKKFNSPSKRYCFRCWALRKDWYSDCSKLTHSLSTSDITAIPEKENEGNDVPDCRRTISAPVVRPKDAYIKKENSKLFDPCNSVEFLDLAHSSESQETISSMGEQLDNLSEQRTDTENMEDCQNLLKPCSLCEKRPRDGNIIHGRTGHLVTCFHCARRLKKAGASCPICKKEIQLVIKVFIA
B3: Speckle-type POZ protein (Homo sapiens), O43791 (parent)
chain: B1 chain
partner: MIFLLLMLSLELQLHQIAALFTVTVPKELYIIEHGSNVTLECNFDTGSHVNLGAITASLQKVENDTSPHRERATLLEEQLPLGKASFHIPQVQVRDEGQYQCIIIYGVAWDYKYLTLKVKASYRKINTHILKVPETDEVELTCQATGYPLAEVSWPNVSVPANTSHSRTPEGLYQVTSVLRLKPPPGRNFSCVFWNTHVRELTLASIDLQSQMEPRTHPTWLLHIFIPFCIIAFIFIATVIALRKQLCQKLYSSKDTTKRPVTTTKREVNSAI
B4: Speckle-type POZ protein (Homo sapiens), O43791 (parent)
chain: B1 chain
partner: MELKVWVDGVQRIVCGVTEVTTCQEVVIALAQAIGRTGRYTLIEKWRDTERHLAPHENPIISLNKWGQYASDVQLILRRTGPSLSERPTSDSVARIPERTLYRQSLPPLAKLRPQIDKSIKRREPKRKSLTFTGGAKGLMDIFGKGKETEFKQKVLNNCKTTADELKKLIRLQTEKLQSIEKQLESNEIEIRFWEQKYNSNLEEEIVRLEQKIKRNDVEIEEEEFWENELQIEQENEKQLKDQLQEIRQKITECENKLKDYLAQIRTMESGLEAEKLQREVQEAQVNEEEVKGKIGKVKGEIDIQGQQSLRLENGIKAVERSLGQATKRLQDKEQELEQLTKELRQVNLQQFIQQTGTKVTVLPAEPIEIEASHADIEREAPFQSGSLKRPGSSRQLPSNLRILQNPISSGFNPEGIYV
B5: Speckle-type POZ protein (Homo sapiens), O43791 (parent)
chain: B1 chain
partner: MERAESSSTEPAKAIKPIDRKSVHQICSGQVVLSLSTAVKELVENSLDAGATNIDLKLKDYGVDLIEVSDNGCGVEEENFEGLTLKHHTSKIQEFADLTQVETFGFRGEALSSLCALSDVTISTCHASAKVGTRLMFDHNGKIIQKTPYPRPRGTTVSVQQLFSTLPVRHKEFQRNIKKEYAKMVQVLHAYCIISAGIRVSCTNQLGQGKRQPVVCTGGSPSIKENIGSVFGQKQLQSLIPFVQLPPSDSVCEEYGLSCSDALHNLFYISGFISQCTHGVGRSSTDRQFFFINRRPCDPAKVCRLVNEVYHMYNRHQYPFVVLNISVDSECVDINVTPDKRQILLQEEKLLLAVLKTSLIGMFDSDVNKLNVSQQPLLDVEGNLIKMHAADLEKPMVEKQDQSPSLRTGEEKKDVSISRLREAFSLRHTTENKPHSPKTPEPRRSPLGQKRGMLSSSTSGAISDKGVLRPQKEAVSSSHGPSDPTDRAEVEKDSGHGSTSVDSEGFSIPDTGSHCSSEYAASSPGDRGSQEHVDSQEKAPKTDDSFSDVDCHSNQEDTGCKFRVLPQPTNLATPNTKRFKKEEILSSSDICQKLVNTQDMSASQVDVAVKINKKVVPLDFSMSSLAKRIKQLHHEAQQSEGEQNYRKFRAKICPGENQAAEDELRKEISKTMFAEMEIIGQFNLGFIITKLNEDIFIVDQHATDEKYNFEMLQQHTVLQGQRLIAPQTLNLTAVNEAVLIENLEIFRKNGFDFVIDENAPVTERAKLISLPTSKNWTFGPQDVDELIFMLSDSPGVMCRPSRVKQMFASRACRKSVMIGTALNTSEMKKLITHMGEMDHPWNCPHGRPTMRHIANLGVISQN
B6: Speckle-type POZ protein (Homo sapiens), O43791 (parent)
chain: B1 chain
partner: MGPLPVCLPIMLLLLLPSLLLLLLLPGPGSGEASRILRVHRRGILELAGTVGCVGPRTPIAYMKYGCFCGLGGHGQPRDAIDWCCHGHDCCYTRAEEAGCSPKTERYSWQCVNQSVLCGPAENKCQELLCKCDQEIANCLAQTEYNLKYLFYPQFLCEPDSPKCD
B7: Speckle-type POZ protein (Homo sapiens), O43791 (parent)
chain: B1 chain
partner: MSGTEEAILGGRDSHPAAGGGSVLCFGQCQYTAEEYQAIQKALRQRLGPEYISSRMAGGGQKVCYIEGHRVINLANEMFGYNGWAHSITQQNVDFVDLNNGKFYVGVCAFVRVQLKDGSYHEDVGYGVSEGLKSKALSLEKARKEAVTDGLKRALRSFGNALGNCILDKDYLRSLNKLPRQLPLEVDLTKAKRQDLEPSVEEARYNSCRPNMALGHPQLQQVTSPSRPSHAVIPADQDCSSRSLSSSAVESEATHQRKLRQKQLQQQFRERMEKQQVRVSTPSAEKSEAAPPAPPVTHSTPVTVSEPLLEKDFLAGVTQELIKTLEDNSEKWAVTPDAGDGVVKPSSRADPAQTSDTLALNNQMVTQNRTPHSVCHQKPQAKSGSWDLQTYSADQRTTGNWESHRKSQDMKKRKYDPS

Variants of: B1
Conditions: with men1_human MEN1, O00255

effect of a mutation on the interaction	Variant
with no effect	F102C

Variants of: B2
Conditions: with mdm4_human MDM4, O15151

effect of a mutation on the interaction	Variant
with no effect	Y87C

Variants of: B2
Conditions: with mdm4_human MDM4, O15151
Remark: another data set of the same source

effect of a mutation on the interaction	Variant
with no effect	F102C

Variants of: B2
Conditions: with mdm4_human MDM4, O15151
Remark: another data set of the same source

effect of a mutation on the interaction	Variant
with no effect	F133L

Variants of: B2
Conditions: with mdm4_human MDM4, O15151
Remark: another data set of the same source

effect of a mutation on the interaction	Variant
with no effect	F133V

Variants of: B3
Conditions: with pd1l2_human PDCD1LG2, Q9BQ51

effect of a mutation on the interaction	Variant
with no effect	Y87C

Variants of: B3
Conditions: with pd1l2_human PDCD1LG2, Q9BQ51
Remark: another data set of the same source

effect of a mutation on the interaction	Variant
with no effect	F102C

Variants of: B3
Conditions: with pd1l2_human PDCD1LG2, Q9BQ51
Remark: another data set of the same source

effect of a mutation on the interaction	Variant
with no effect	F133L

Variants of: B3
Conditions: with pd1l2_human PDCD1LG2, Q9BQ51
Remark: another data set of the same source

effect of a mutation on the interaction	Variant
with no effect	F133V

Variants of: B4
Conditions: with rasf8_human RASSF8, Q8NHQ8

effect of a mutation on the interaction	Variant
with no effect	Y87C

Variants of: B4
Conditions: with rasf8_human RASSF8, Q8NHQ8
Remark: another data set of the same source

effect of a mutation on the interaction	Variant
with no effect	F102C

Variants of: B4
Conditions: with rasf8_human RASSF8, Q8NHQ8
Remark: another data set of the same source

effect of a mutation on the interaction	Variant
with no effect	F133V

Variants of: B4
Conditions: with rasf8_human RASSF8, Q8NHQ8
Remark: another data set of the same source

effect of a mutation on the interaction	Variant
with no effect	F133L

Variants of: B5
Conditions: with pms2_human PMS2, P54278

effect of a mutation on the interaction	Variant
with no effect	F102C

Variants of: B5
Conditions: with pms2_human PMS2, P54278
Remark: another data set of the same source

effect of a mutation on the interaction	Variant
with no effect	F133L

Variants of: B5
Conditions: with pms2_human PMS2, P54278
Remark: another data set of the same source

effect of a mutation on the interaction	Variant
with no effect	F133V

Variants of: B5
Conditions: with pms2_human PMS2, P54278
Remark: another data set of the same source

effect of a mutation on the interaction	Variant
with no effect	Y87C

Variants of: B6
Conditions: with pa2gx_human PLA2G10, O15496

effect of a mutation on the interaction	Variant
with no effect	Y87C

Variants of: B6
Conditions: with pa2gx_human PLA2G10, O15496
Remark: another data set of the same source

effect of a mutation on the interaction	Variant
with no effect	F102C

Variants of: B6
Conditions: with pa2gx_human PLA2G10, O15496
Remark: another data set of the same source

effect of a mutation on the interaction	Variant
with no effect	F133L

Variants of: B6
Conditions: with pa2gx_human PLA2G10, O15496
Remark: another data set of the same source

effect of a mutation on the interaction	Variant
with no effect	F133V

Variants of: B7
Conditions: with rad52_human RAD52, P43351

effect of a mutation on the interaction	Variant
with no effect	F133L

Variants of: B7
Conditions: with rad52_human RAD52, P43351
Remark: another data set of the same source

effect of a mutation on the interaction	Variant
with no effect	F133V

Variants of: B7
Conditions: with rad52_human RAD52, P43351
Remark: another data set of the same source

effect of a mutation on the interaction	Variant
with no effect	Y87C
